Assay results taken from patent US20190309052A1 (Gilead, published 2019).

Tests used:
[1] = target: T1, HBx AD38 (genotype D) residue 27-50 peptide (Hepatitis B virus genotype D); assay: ELISA, 100 ng/mL antibody with varying peptide concentration
T1 construct: also called HBx27-50; HBx27-50 peptide
T1 peptide: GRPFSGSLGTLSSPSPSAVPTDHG

HBx69-87 control peptide = target: T2, HBx69-87 control peptide (Hepatitis B virus, UniProt P03165 69-87); assay: ELISA with varying concentrations of peptide
T2 construct: range 69-87; also called HBx69-87 peptide
T2 peptide: CALRFTSARRMETTVNAHQ

B1: HBx M19 mouse monoclonal anti-HBx antibody (antibody, V domains shown)
VH: EVQLQQSGPELVKPGASVKISCQASGYTFTDYYMNWVKQSHGKRLEWIGDINPNNGGTAYNQKFKGKATLTVDRSSSTAYMEVRSLTSEDSAVYFCALLAYWGQGTLVTVSA
VL: DVVMTQTPLSLPVSLGDQASISCRSSQSLVYSDGNTHLHWYLQKTGQSPKLLIYKASNRFSGVPDRFSGSGSGTDFTLKISRVEAEDLGVYFCSQSTHVPLTFGAGTKLELKR
notes: also called aHBx mAb; αHBx mAb
binding result [1]: binds | binding result (HBx69-87 control peptide): no binding (tested: 100 ng/mL antibody)
